This note sets out measurements from patent publication US20050277167A1 (published 2005).

For the test, the target named is T1, chicken prolyl 3-hydroxylase 1 (chicken P3H1) (chicken, UniProt Q6JHU8 15-725).
T1 construct: Native protein from chick embryos (gelatin sepharose, then 1C10 antibody column); also called chick homologue of leprecan; 90 kDa protein
T1 sequence: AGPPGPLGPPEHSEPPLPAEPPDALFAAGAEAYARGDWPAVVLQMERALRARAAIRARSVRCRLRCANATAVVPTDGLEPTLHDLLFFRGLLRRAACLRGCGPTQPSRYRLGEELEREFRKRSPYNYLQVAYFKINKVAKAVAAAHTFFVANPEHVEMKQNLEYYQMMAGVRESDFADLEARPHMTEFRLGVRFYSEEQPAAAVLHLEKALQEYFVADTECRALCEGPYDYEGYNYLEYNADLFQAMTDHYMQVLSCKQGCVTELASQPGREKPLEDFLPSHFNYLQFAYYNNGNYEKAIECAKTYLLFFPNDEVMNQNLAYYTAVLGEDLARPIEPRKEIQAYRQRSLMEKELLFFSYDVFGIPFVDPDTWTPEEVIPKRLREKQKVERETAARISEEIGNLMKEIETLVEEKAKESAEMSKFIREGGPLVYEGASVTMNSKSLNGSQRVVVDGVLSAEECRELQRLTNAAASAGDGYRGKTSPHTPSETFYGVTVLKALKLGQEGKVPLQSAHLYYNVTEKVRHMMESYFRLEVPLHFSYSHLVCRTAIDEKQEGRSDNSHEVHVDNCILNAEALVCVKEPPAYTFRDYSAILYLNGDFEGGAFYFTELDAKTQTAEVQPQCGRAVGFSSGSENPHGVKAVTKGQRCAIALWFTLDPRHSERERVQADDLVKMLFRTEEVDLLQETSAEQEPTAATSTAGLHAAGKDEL
The test can be described thus: co-retention on 1C10 (anti-P3H1) column, elution at pH 6 and 0.5 M NaCl, SDS-PAGE and sequencing. The procedure: The antibody was produced and selected by standard methods and specificity of the antibody was determined using immunoblotting and ELISA techniques. The antibody recognizes both nonreduced and reduced (at much lower affinity) P3H1 and was used to create an affinity column for the purpose of protein purification. Briefly, a 2 ml column was created using approximately 10 mg of the 1C10 antibody and AminoLink® plus coupling gel (Pierce) following the manufacturer's instructions. Pooled and dialyzed peak fractions from the gelatin sepharose elution were then loaded onto the antibody column and the flow through was collected and concentrated for further purification of prolyl 4-hydroxylase and PDI by sieve chromatography on superose 12 resin (Pharmacia). The 1C10 antibody column was washed with 5 volumes of PBS (procedure described in Current Protocols in Protein Science Online), and then washed with 5 volumes of wash B buffer containing 50 mM sodium phosphate, pH 6.0, 0.5 M NaCl, and 0.1% Triton X-100 to elute associated proteins. […] Sequences of proteins eluted with the wash B buffer were determined by Edman degradation in a protein sequencer (Applied Biosystems Procise Sequencer). […]

B1: cyclophilin B (CYPB) (enzyme)
chain: not shown
notes: Native protein from chick embryos, 21 kDa on SDS-PAGE; also called 21 kDa protein
In the case of B1, the binding result is recorded as “binds”.
